Data taken from paper PMC3616908.
Blank lines part the entries; values can stand above or below the substance they belong to.

Molecular target: Chk1 (UniProt P38147)
Assay: biotinylated 35-mer peptide pull-down, anti-FLAG blot

binding against the reference (reference: unphosphorylated peptide, sites T125): weaker
Substance: Rad9 (from UniProt P14737) T125p peptide

binding against the reference (reference: T125p peptide, sites T143): stronger
binding against the reference (reference: T143p peptide, sites T125): weaker
binding against the reference (reference: unphosphorylated peptide, sites T125,T143): stronger
Substance: Rad9 (from UniProt P14737) T125pT143p peptide

binding against the reference (reference: unphosphorylated peptide, sites T143): stronger
Substance: Rad9 (from UniProt P14737) T143p peptide

binding against the reference (reference: T143p peptide, untreated or λ phosphatase plus inhibitors, sites T143): weaker
Substance: Rad9 (from UniProt P14737) T143p peptide, λ phosphatase treated
